Laboratory results as given in the supplement of paper PMC7125110.
± gives the standard error. Variants at the floor of the assay were thinned out.

B1: glmS ribozyme (parent)
chain: AUAAAAGCGCCAGAACUACAGAAAUGUAGUUGACGAGGAGGAGGUUUAUCGAAUUUUCGGCGGAUGCCUCCAAA

Variants of: B1
Assay: self-cleavage kobs at 10000 uM GlcN6P; higher = faster cleavage; RNA array
Conditions: with glucosamine-6-phosphate
Outline: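 kcat and KM were obtained from weighted Michaelis–Menten fits across concentrations of kobs values. Those came from one- or two-exponential decay fits to per-tile medians normalised to baseline and to non-cleaving reference variants. The variants were barcoded ribozymes transcribed in situ by E. coli RNA polymerase on sequenced MiSeq chips and tracked through a hybridised Cy3 probe at 37 °C, with 40 μM to 10 mM glucosamine-6-phosphate in HEPES/KCl/Mg(OAc)2 buffer flowed in.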

First: G37U G38A C67U
Second: G41C U56C
The “self-cleavage kobs at 10000 uM GlcN6P” value of the first is lower: under 1e-05 s⁻¹ for the first, 3.26e-05 ± 8.9e-06 s⁻¹ for the second.

C58U G63C C70U and C50U A64C C71A cannot be ordered by “self-cleavage kobs at 10000 uM GlcN6P” value: under 1e-05 s⁻¹ for the first, under 1e-05 s⁻¹ for the second.

A33U A53C G62U and A15C C16G U56A C61G cannot be ordered by “self-cleavage kobs at 10000 uM GlcN6P” value: under 1e-05 s⁻¹ for the first, under 1e-05 s⁻¹ for the second.

A18C G38A C50U C58U G59U and G38A U57C A64U cannot be ordered by “self-cleavage kobs at 10000 uM GlcN6P” value: under 1e-05 s⁻¹ for the first, under 1e-05 s⁻¹ for the second.

G35C G38U G43A G51C G60C and A33U G44A G63U cannot be ordered by “self-cleavage kobs at 10000 uM GlcN6P” value: under 1e-05 s⁻¹ for the first, under 1e-05 s⁻¹ for the second.

Compared with A36U G43C U54C U55C G63C C71A, A42G U45A U65C is higher in “self-cleavage kobs at 10000 uM GlcN6P” value: under 1e-05 s⁻¹ for the first, 0.00105 ± 0.00028 s⁻¹ for the second.

Compared with G43C C68U C70G C71U, U30G U31G U46C U65G is higher in “self-cleavage kobs at 10000 uM GlcN6P” value: under 1e-05 s⁻¹ for the first, 5.94e-05 ± 2.6e-05 s⁻¹ for the second.

First: A15G G63U A64G
Second: A48U U54C C68U
The “self-cleavage kobs at 10000 uM GlcN6P” value of the first is lower: under 1e-05 s⁻¹ for the first, 9.01e-05 ± 2.8e-05 s⁻¹ for the second.

Compared with U46A G62C C71U, G29A A64G C67G is higher in “self-cleavage kobs at 10000 uM GlcN6P” value: under 1e-05 s⁻¹ for the first, 5.14e-05 ± 2e-05 s⁻¹ for the second.

Going from C16G G29A C67A to C34A C58G C68G, the “self-cleavage kobs at 10000 uM GlcN6P” value rises from 0.000261 ± 8.9e-05 s⁻¹ to 0.000608 ± 0.00016 s⁻¹ (2.3-fold).

G29C U46G A64U and G35C G59A C61U cannot be ordered by “self-cleavage kobs at 10000 uM GlcN6P” value: under 1e-05 s⁻¹ for the first, under 1e-05 s⁻¹ for the second.

First: C16U G29C G35U A39G
Second: A39G U45C C67A
The “self-cleavage kobs at 10000 uM GlcN6P” value of the first is lower: under 1e-05 s⁻¹ for the first, 0.00692 ± 0.0024 s⁻¹ for the second.

G40C G51C U57A and U30G U49A C68A cannot be ordered by “self-cleavage kobs at 10000 uM GlcN6P” value: under 1e-05 s⁻¹ for the first, under 1e-05 s⁻¹ for the second.

Compared with A15U C16G G32C, A53C U69C is 14-fold higher in “self-cleavage kobs at 10000 uM GlcN6P” value: 8.84e-05 ± 2.6e-05 s⁻¹ for the first, 0.00127 ± 0.00031 s⁻¹ for the second.

Going from G29U G37A C67U to G35A G38U A53C C70U, the “self-cleavage kobs at 10000 uM GlcN6P” value falls from 5.27e-05 ± 1.5e-05 s⁻¹ to under 1e-05 s⁻¹.

C16G U47A C61G and G43A C50A A64U cannot be ordered by “self-cleavage kobs at 10000 uM GlcN6P” value: under 1e-05 s⁻¹ for the first, under 1e-05 s⁻¹ for the second.

Compared with C34A A36C G37U U69G, U46G G62A C71A is lower in “self-cleavage kobs at 10000 uM GlcN6P” value: 0.000153 ± 3.2e-05 s⁻¹ for the first, under 1e-05 s⁻¹ for the second.

Compared with A33C U46C, U30G U47C C68U is 4.1-fold higher in “self-cleavage kobs at 10000 uM GlcN6P” value: 4.16e-05 ± 1.7e-05 s⁻¹ for the first, 0.000171 ± 3.3e-05 s⁻¹ for the second.

Going from U31A A42G U46C to G29U U55A U69A, the “self-cleavage kobs at 10000 uM GlcN6P” value falls from 0.000411 ± 9.2e-05 s⁻¹ to 4.12e-05 ± 1.6e-05 s⁻¹ (10-fold).

Compared with U57C C58A C70U, U45A G62A is lower in “self-cleavage kobs at 10000 uM GlcN6P” value: 3.37e-05 ± 1.7e-05 s⁻¹ for the first, under 1e-05 s⁻¹ for the second.

U30G A36G G40U C68A and G29C C34G G40C C70A cannot be ordered by “self-cleavage kobs at 10000 uM GlcN6P” value: under 1e-05 s⁻¹ for the first, under 1e-05 s⁻¹ for the second.

G29A C58U and G29A C58G are within error of each other in “self-cleavage kobs at 10000 uM GlcN6P” value: 4.95e-05 ± 8.6e-06 s⁻¹ for the first, 6.15e-05 ± 1.1e-05 s⁻¹ for the second.

Going from A15U G32U U54A to A39U A52U U56G, the “self-cleavage kobs at 10000 uM GlcN6P” value falls from 0.00058 ± 0.00013 s⁻¹ to 8.75e-05 ± 1.8e-05 s⁻¹ (6.6-fold).

Going from A42G C58A C67U to C16A A64G C67G C70U, the “self-cleavage kobs at 10000 uM GlcN6P” value falls from 0.00012 ± 1.9e-05 s⁻¹ to under 1e-05 s⁻¹.

Compared with U31G G44C, C34U G43U U57G U65G is lower in “self-cleavage kobs at 10000 uM GlcN6P” value: 4.96e-05 ± 1.3e-05 s⁻¹ for the first, under 1e-05 s⁻¹ for the second.

Going from A36C G37C A53U U69C to U55A A64U C71A, the “self-cleavage kobs at 10000 uM GlcN6P” value rises from under 1e-05 s⁻¹ to 4.3e-05 ± 1.9e-05 s⁻¹.

Compared with A39U U46A A53G, U31G G43C U45G is 4-fold lower in “self-cleavage kobs at 10000 uM GlcN6P” value: 0.00108 ± 0.00026 s⁻¹ for the first, 0.000273 ± 8.2e-05 s⁻¹ for the second.

Going from U55G G59C C70A to U31A C34U G44A, the “self-cleavage kobs at 10000 uM GlcN6P” value falls from 0.000104 ± 2.7e-05 s⁻¹ to under 1e-05 s⁻¹.

Compared with G26U U49G U56A, A39G U54A G62U G66A is lower in “self-cleavage kobs at 10000 uM GlcN6P” value: 0.00027 ± 6.8e-05 s⁻¹ for the first, under 1e-05 s⁻¹ for the second.

First: A48U C50G
Second: G21U A33U C70U
The “self-cleavage kobs at 10000 uM GlcN6P” value of the first is lower: under 1e-05 s⁻¹ for the first, 0.000159 ± 2.9e-05 s⁻¹ for the second.

Compared with U30G A33G C71G, U56A U69C C71G is higher in “self-cleavage kobs at 10000 uM GlcN6P” value: under 1e-05 s⁻¹ for the first, 8.19e-05 ± 2e-05 s⁻¹ for the second.

Compared with A15G G32C G59C, A36U G40A G43C A52G is higher in “self-cleavage kobs at 10000 uM GlcN6P” value: under 1e-05 s⁻¹ for the first, 0.00106 ± 0.00036 s⁻¹ for the second.

Compared with G51A A52U G59A, U47A G59A C71U is higher in “self-cleavage kobs at 10000 uM GlcN6P” value: under 1e-05 s⁻¹ for the first, 6.73e-05 ± 2.5e-05 s⁻¹ for the second.

First: U30C U55C C70U
Second: A42U A48U U65C
The “self-cleavage kobs at 10000 uM GlcN6P” value of the first is higher: 8.64e-05 ± 1.7e-05 s⁻¹ for the first, under 1e-05 s⁻¹ for the second.

First: U31G G38C G40C G60C U69A C71A
Second: U31C G32A U47G C67A
The “self-cleavage kobs at 10000 uM GlcN6P” value of the first is lower: under 1e-05 s⁻¹ for the first, 6.62e-05 ± 1.4e-05 s⁻¹ for the second.

Compared with A15G C16U A39U, C50G C67U C68G C71G is 60-fold lower in “self-cleavage kobs at 10000 uM GlcN6P” value: 0.00651 ± 0.0013 s⁻¹ for the first, 0.000108 ± 2.8e-05 s⁻¹ for the second.

For A15U A53U G63C, the “self-cleavage kobs at 10000 uM GlcN6P” value was under 1e-05 s⁻¹.
